Source: US20050124803A1

B1: 4BRA (Cry4Ba with R203 mutated to A, trypsin-activated toxin) (protein)
chain: AINSSSVSTALKVAGAILKFVNPPAGTVLTVLSAVLPILWPTNTPTPERVWNDFMTNTGNLIDQTVTAYVRTDANAKMTVVKDYLDQYTTKFNTWKREPNNQSYRTAVITQFNLTSAKLRETAVYFSNLVGYELLLLPIYAQVANFNLLLIRDGLINAQEWSLAASAGDQLYNTMVQYTKEYIAHSITWYNKGLDVLRNKSNGQWITFNDYKREMTIQVLDILALFASYDPRRYPADKIDNTKLSKTEFTREIYTALVESPSSKSIAALEAALTRDVHLFTWLKRVDFWTNTIYQDLRFLSANKIGFSYTNSSAMQESGIYGSSGFGSNLTHQIQLNSNVYKTSITDTSSPSNRVTKMDFYKIDGTLASYNSNITPTPEGLRTTFFGFSTNENTPNQPTVNDYTHILSYIKTDVIDYNSNRVSFAWTHKIVDPNNQIYTDAITQVPAVKSNFLNATAKVIKGPGHTGGDLVALTSNGTLSGRMEIQCKTSIFNDPTRSYGLRIRYAANSPIVLNVSYVLQGVSRGTTISTESTFSRPNNIIPTDLKYEEFRYKDPFDAIVPMRLSSNQLITIAIQPLNMTSNNQVIIDRIEIIPITQSVLDET
modifications: 125I-iodinated (iodo-bead, sites not stated) where used as labelled toxin
B2: 4BL3PAT (4BRA with D454 replaced with P and AT inserted after position 454, loop 3 of domain II) (protein)
chain: AINSSSVSTALKVAGAILKFVNPPAGTVLTVLSAVLPILWPTNTPTPERVWNDFMTNTGNLIDQTVTAYVRTDANAKMTVVKDYLDQYTTKFNTWKREPNNQSYRTAVITQFNLTSAKLRETAVYFSNLVGYELLLLPIYAQVANFNLLLIRDGLINAQEWSLAASAGDQLYNTMVQYTKEYIAHSITWYNKGLDVLRNKSNGQWITFNDYKREMTIQVLDILALFASYDPRRYPADKIDNTKLSKTEFTREIYTALVESPSSKSIAALEAALTRDVHLFTWLKRVDFWTNTIYQDLRFLSANKIGFSYTNSSAMQESGIYGSSGFGSNLTHQIQLNSNVYKTSITDTSSPSNRVTKMDFYKIDGTLASYNSNITPTPEGLRTTFFGFSTNENTPNQPTVNDYTHILSYIKTDVIPATYNSNRVSFAWTHKIVDPNNQIYTDAITQVPAVKSNFLNATAKVIKGPGHTGGDLVALTSNGTLSGRMEIQCKTSIFNDPTRSYGLRIRYAANSPIVLNVSYVLQGVSRGTTISTESTFSRPNNIIPTDLKYEEFRYKDPFDAIVPMRLSSNQLITIAIQPLNMTSNNQVIIDRIEIIPITQSVLDET
modifications: 125I-iodinated (iodo-bead, sites not stated) where used as labelled toxin

Key:
[1] = target: Ae. aegypti BBMV (brush border membrane vesicles of Aedes aegypti larvae; toxin receptors on them not identified) (Aedes aegypti); experiment: saturation binding of 125I-toxin to BBMV, Hill fit
[2] = target: An. quadrimaculatus BBMV (brush border membrane vesicles of Anopheles quadrimaculatus larvae; toxin receptors on them not identified) (Anopheles quadrimaculatus); experiment: saturation binding of 125I-toxin to BBMV, Hill fit
[3] = target: Cx. quinquefasciatus BBMV (brush border membrane vesicles of Culex quinquefasciatus larvae; toxin receptors on them not identified) (Culex quinquefasciatus); experiment: saturation binding of 125I-toxin to BBMV, Hill fit
[4] = target: Cx. quinquefasciatus BBMV (brush border membrane vesicles of Culex quinquefasciatus larvae; toxin receptors on them not identified) (Culex quinquefasciatus); experiment: saturation binding of 125I-toxin to BBMV, Hill fit (repeats Table 3); design: Bmax: unit not given here
[5] = target: Cx. quinquefasciatus BBMV (brush border membrane vesicles of Culex quinquefasciatus larvae; toxin receptors on them not identified) (Culex quinquefasciatus); experiment: saturation binding of 125I-toxin to BBMV, Hill fit; design: Bmax: unit not given here

Binder	Bmax [1]	K′D (composite dissociation constant) [1]	Bmax [2]	K′D (composite dissociation constant) [2]	Bmax [3]	K′D (composite dissociation constant) [3]	Bmax [4]	K′D (composite dissociation constant) [4]	Bmax [5]	K′D (composite dissociation constant) [5]
B1	17.2 fmol/µg	0.5 nM	35.2 fmol/µg	3.1 nM	13.1 fmol/µg	6.9 nM	13.1	6.9 nM		
B2									9.3	0.9 nM
